Columns and labels:
[1] = target: LIGHT standard recombinant antigen (UniProt O43557); experiment: Simoa sandwich immunoassay, Enzo ALX-804-841-C100 capture with ProSci RF16062 detection, free LIGHT in diluent; signal inhibited by DcR3 as competitor
[2] = target: LIGHT standard recombinant antigen (UniProt O43557); experiment: Simoa sandwich immunoassay, Enzo ALX-804-841-C100 capture with ProSci RF16062 detection, free LIGHT in diluent; uninhibited signal in the inhibition formula
[3] = target: native free LIGHT (TNFSF14) in serum and plasma samples (UniProt O43557); experiment: antibody competition: serum and plasma samples incubated with 50 µg/mL free capture antibody for 35 minutes before the Simoa free LIGHT assay; treated against untreated sample concentration

MFI [1]: 361 MFI
MFI [2]: 9940 MFI
% Recovery [3]: 0%
Substance: Enzo ALX-804-841-C100 (antibody)
